Positions count from the first letter of the chain named. Names may count otherwise.
B1: Escherichia coli MscL F93C, MTSSL spin-labelled (EcMscL F93R1) (natural protein, UniProt P0A742 1-136, looked up)
chain: MSIIKEFREFAMRGNVVDLAVGVIIGAAFGKIVSSLVADIIMPPLGLLIGGIDFKQFAVTLRDAQGDIPAVVMHYGVFIQNVFDFLIVAFAICMAIKLINKLNRKKEEPAAAPAPTKEEVLLTEIRDLLKEQNNRS
modifications: MTSSL spin label on the cysteine at 93 (R1)
notes: Mechanosensitive channel of large conductance (MscL), Escherichia coli; cysteine mutant on vector pET-52b; R1 denotes the spin-labelled cysteine; also called EcF93R1; source: E. coli BL21 (DE3), purified (Ni-NTA, SEC) in DDM, MTSSL spin-labelled; also reconstituted in MSP1D1 DMPC nanodisks
B2: Escherichia coli MscL M94C, MTSSL spin-labelled (EcMscL M94R1) (natural protein, UniProt P0A742 1-136, looked up)
chain: B1 chain with C93F, M94C
modifications: MTSSL spin label on the cysteine at 94 (R1)
notes: Mechanosensitive channel of large conductance (MscL), Escherichia coli; cysteine mutant on vector pET-52b; R1 denotes the spin-labelled cysteine; possibly a pentamer in DDM; also called EcM94R1; EcM94C; source: E. coli BL21 (DE3), purified (Ni-NTA, SEC) in DDM, MTSSL spin-labelled; also reconstituted in MSP1D1 DMPC nanodisks

Molecular target: the molecule itself
Assay: PELDOR/DEER; spin-labelled single-cysteine channel in DDM detergent solution (50 mM sodium phosphate pH 7.5, 300 mM NaCl, 0.05% DDM), diluted 1:1 with deuterated ethylene glycol, flash frozen; Q band, 50 K; distances between the labels of the subunits of one channel

| Protein | stoichiometry N | binding result |
| --- | --- | --- |
| B1 | 5 | – |
| B2 | – | binds |

Reference: paper PMC7376121, “In-Lipid Structure of Pressure-Sensitive Domains Hints Mechanosensitive Channel Functional Diversity” (Biophysical Journal, 2020)
